Source: patent US20190359693A1

Target: hemagglutinin (HA) of influenza A/Env/MPJ193/09 (H3N?) (influenza A virus)
Assay: cell-based or functional assay

MD3606 (Fc fusion) was tested, and the Average neutralization titers was 11.8 nM.
